This is an account of results in patent US20210253725A1 (BIONTECH, published 2021).

For assay [1], the target named is T1, CD137 protein (His-tagged, Sino Biological Inc. 10041-H08H) (human, UniProt Q07011 24-186).
T1 construct: bought protein coated on ELISA plates; also called 4-1BB; TNFRSF9; not shown: His tag
The assay can be described thus: ELISA, coated His-tagged CD137. Further: test concentration or dose not given here.

Assay [2] has as its target T2, CD137 expressed on the cell surface of HT1080_4-1BB cells (human, UniProt Q07011 24-255). The assay can be described thus: cell-based or functional assay.
Assay [3] addresses T2, CD137 expressed on the cell surface of …. The assay can be described thus: HT1080_4-1BB cells, imaging. Further: test concentration or dose not given here.
Assay [4] has as its target CD134 expressed on the cell surface of HT1080_OX40 cells (human) (UniProt P43489). The assay can be described thus: HT1080_OX40 cells, imaging.
Assay [5] has the same target. The assay can be described thus: cell-based or functional assay.
Wherever Functional assay Cross-linked by F(ab′)2 fragment IL-8 is given: test concentration or dose not given here.
Wherever Functional assay IL-8 is given: test concentration or dose not given here.

CD134 expressed on the cell surface of HT1080_OX40 cells (human), sequence (P43489 29-277): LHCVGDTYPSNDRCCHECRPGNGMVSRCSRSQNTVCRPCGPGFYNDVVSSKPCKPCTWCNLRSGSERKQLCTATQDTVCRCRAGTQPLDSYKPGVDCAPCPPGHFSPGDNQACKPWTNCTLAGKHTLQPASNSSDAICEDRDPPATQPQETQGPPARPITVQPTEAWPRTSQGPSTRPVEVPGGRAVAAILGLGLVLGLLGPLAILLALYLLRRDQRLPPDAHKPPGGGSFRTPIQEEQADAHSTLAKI
T2 sequence (Q07011 24-255): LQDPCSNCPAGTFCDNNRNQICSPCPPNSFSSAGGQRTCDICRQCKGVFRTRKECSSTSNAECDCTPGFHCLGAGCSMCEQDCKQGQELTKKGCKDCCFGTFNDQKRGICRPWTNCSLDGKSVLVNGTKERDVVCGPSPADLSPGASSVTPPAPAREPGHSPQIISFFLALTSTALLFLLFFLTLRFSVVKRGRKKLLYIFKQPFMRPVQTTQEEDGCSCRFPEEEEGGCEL

B1: P018.S.14.A.G03 (antibody, V domains shown)
VH: QSLEESGGRLVTPGTPLTLTCTVSGIDLSSYHMCWVRQAPGKGLEYIGYIAYGGNTYYANWAKGRFTISKTSTTVDLRITSPTTEDTATYFCARGYSEDSYWGLWGPGTLVTVSS
VL: AYDMTQTPASVEAAVGGTVTIKCQASQNIENYLAWYQQKPGQPPKLLIYDTSKLTSGVPSRFSGSGSGTDFTLTISGVQSDDAATYYCQQDYGIIFVDNIFGGGTEVVVK
notes: V regions on human Ig constant parts; also called AB137_11
Consider B1, for which the “ELISA [abs. corr.]” value in assay [1] was 2.07 abs. corr. For the same molecule, in assay [2], the “Functional assay Cross-linked by F(ab′)2 fragment IL-8” value (shortened to “Functional assay Cross-linked”) was 1.14 abs. corr and the “Functional assay IL-8” value is 0.222 abs. corr. The “Cellular binding assay [RFU]” value in assay [3] was 19 RFU.

B2: P018.S.08.A.A04 (antibody, V domains shown)
VH: QSVEESGGRLVTPGTPLTLTCTVSGFSLSSYAVSWVRQAPGKGLEWIGVIWNNGATHYATWAKGRFTISKASTTVDLKVTSPTTEDTATYFCARSANDAWSTYSDLWGQGTLVTVSS
VL: DIVMTQTPASVEAAVGGTVTIKCQASQTITNYLSWYQQKPGQPPKLLIYKASTLTSGVSSRFKGSGSGTEFTLTISDLESDDAATYYCQNYYYGSSSGYGFVFGGGTEVVVK
notes: V regions on human Ig constant parts; also called AB137_1
In the case of B2, the “ELISA [abs. corr.]” value in assay [1] was 3.42 abs. corr. In addition, in assay [2], the “Functional assay Cross-linked” value stood at 1.55 abs. corr and the “Functional assay IL-8” value was found to be 0.368 abs. corr. The “Cellular binding assay [RFU]” value in assay [3] worked out at 46 RFU.

B3: P018.S.08.A.F03 (antibody, V domains shown)
VH: QSVEESGGRLVTPGTPLTLTCTASGFTISSYHMIWVRQAPGEGLEWIGDIYGGTATTDYASWAKGRFTISKTSTTVDLKMTSLTTEDTATYFCARARYSGGSYANYVFNLWGQGTLVTVSS
VL: DIVMTQTPASVEAAVGGTVTIKCQASQSISSYLAWYQQKPGQPPKLLIYRTSTLESGVPSRFKGSGSGTEFTLTISDLESADAATYYCQGYDWSSSNRYDNTFGGGTEVVVK
notes: V regions on human Ig constant parts; also called AB137_3
Turning to B3, in assay [1], the “ELISA [abs. corr.]” value is 2.33 abs. corr. In assay [2], the “Functional assay Cross-linked” value was determined as 1.36 abs. corr and the “Functional assay IL-8” value is -0.346 abs. corr. Besides, the “Cellular binding assay [RFU]” value in assay [3] came out at 7 RFU.

B4: P018.S.05.A.G03 (antibody, V domains shown)
VH: QEQLVESGGGLVQPEGSLTVTCTASGFSFSNSYWMCWVRQAPGKGLEWIACIYLGSAGTTHHATWAKGRFTISKTTSTTVTLQMTSLTAADTATYFCARAGHDYWGAYHTLWGPGTLVTVSS
VL: DVVMTQTPASVSEPVGGSVTIKCQASQNIDNTLAWYQQKAGQPPKLLIYHASTLASGVPSRFRGSGSGTDFTLTISDLESADAATYYCQCPYYGSTYVYSFGGGTEVVVK
Take B4: the Cellular binding assay [RFU] in assay [4] was 40 RFU. Besides, in assay [5], the EC 50 (IL-8 release, cross-linked) turned out to be 0.966 µg/mL; the Functional assay Cross-linked by F(ab′)2 fragment IL-8 came out at 2.39 abs. corr; the Functional assay IL-8 was 0.032 abs. corr.

B5: P018.S.14.A.D06 (antibody, V domains shown)
VH: QSVEESGGRLVTPGTPLTLTCTVSGFSLSTYAMIWVRQAPGKGLEWIGVVYDNGYISHATWVKGRFTISKTSTTVGLEITSPTTEDTATYFCARSADGSWSTYFNLWGQGTLVTVSS
VL: DIVMTQTPASVEAAVGGTVTIKCQASESISNYLAWYQQKPGQPPKLLIYKASTLASGVSSRFKGSGSGTEFTLTISDLESADAATYYCQTNYCCSSSDNGFAFGGGTEVVVK
notes: V regions on human Ig constant parts; also called AB137_10
As for B5, in assay [1], the “ELISA [abs. corr.]” value came to 2.9 abs. corr. Moreover, in assay [2], the “Functional assay Cross-linked” value came to 1.52 abs. corr and the “Functional assay IL-8” value was -0.011 abs. corr. Further, the “Cellular binding assay [RFU]” value in assay [3] turned out to be 1 RFU.

B6: P018.S.13.A.C02 (antibody, V domains shown)
VH: QSVEESGGRLVTPGTPLTLTCTVSGFSLSSYAMSWVRQAPGKGLEWIGIISTSGITYYASWAKGRFTISKTSTMVDLKITSPTTEDTATYFCARLNGFDDYVRYFDFWGLGTLVTVSS
VL: AIELTQTPSSVSAAVGGTVTINCQASESIASNLAWYQQKPGQPPKLLIYAASYLASGVPSRFKGSGSGTEYTLTISGVQSADAATYYCQSAFYVSSSDNAFGGGTEVVVK
notes: V regions on human Ig constant parts; also called AB137_6
As for B6, the “ELISA [abs. corr.]” value in assay [1] is 2.55 abs. corr. Further, in assay [2], the “Functional assay Cross-linked” value amounted to 1.4 abs. corr and the “Functional assay IL-8” value was 0.113 abs. corr. Besides, the “Cellular binding assay [RFU]” value in assay [3] worked out at 8 RFU.

B7: P018.S.14.A.A04 (antibody, V domains shown)
VH: QSLEESGGRLVTPGTPLTLTCTVSGFSLNDYWMSWVRQAPGKGLEWIGYIDVGGSLYYASWAKGRFTISRTSTTVDLKMTSLTTEDTATYFCARGGLTYGFDLWGPGTLVTVSS
VL: DIVMTQTPASVSEPVGGTVTINCQASEDISSYLAWYQQKPGQRPKRLIYGASDLASGVPSRFSASGSGTEYALTISDLESADAATYYCHYYATISGLGVAFGGGTEVVVK
notes: V regions on human Ig constant parts; also called AB137_9
As to B7, the “ELISA [abs. corr.]” value in assay [1] came out at 3.44 abs. corr. Besides, in assay [2], the “Functional assay Cross-linked” value worked out at 0.972 abs. corr and the “Functional assay IL-8” value came to 0.785 abs. corr. In addition, the “Cellular binding assay [RFU]” value in assay [3] came to 81 RFU.

B8: P018.S.13.A.G03 (antibody, V domains shown)
VH: QSLEESGGRLVTPGTPLTLTCTASGFSLSSYDVSWVRQAPGKGLEYIGFIGSDGSAHYATWVKGRFTISKTSTTVDLKITSPTTEDTATYFCARDWNDYWAHDLWGPGTLVTVSS
VL: AQVLTQTTSPVSAAVGGTVTINCQASQIVTSKSALSWYQQKPGQPPRLLIYKASTLASGVPSRFSGSGSGTQFTLTISDLESDDAATYYCAGGYYNSGDLNPFGGGTEVVVK
notes: V regions on human Ig constant parts; also called AB137_7
For the molecule B8, the “ELISA [abs. corr.]” value in assay [1] worked out at 1.73 abs. corr. Besides, in assay [2], the “Functional assay Cross-linked” value was 0.789 abs. corr and the “Functional assay IL-8” value is -0.164 abs. corr. In assay [3], the “Cellular binding assay [RFU]” value was determined as 13 RFU.
